In patent publication US20120207760A1 (THERACLONE SCIENCES, published 2012):

B1: TCN-031 Fab fragment (Fab, V domains shown)
VH: EVQLVESGGGLVQPGGSLRISCAASGFTVSSNYMSWVRQAPGKGLEWVSVIYSGGSTYYADSVKGRFSFSRDNSKNTVFLQMNSLRAEDTAVYYCARCLSRMRGYGLDVWGQGTTVTVS
VL: DIQMTQSPSSLSASVGDRVTITCRTSQSISSYLNWYQQKPGKAPKLLIYAASSLQSGVPSRFSGSGSGTDFTLTISGLQPEDFATYYCQQSYSMPAFGQGTKLEIK
B2: TCN-032 Fab fragment (Fab, V domains shown)
VH: QVQLQESGPGLVKPSETLSLTCTVSGSSISNYYWSWIRQSPGKGLEWIGFIYYGGNTKYNPSLKSRVTISQDTSKSQVSLTMSSVTAAESAVYFCARASCSGGYCILDYWGQGTLVTVS
VL: DIQMTQSPSSLSASVGDRVTITCRASQNIYKYLNWYQQRPGKAPKGLISAASGLQSGVPSRFSGSGSGTDFTLTITSLQPEDFATYYCQQSYSPPLTFGGGTRVEIK
B3: TCN-553 (5261_C18) (antibody, V domains shown)
VH: QVQVVQSGTEVKKPGSSVKVSCQTSGGRFMSYAITWVRQAPGQGLEWMGGIVPVFGTANYAQKFQGRVTITTDDSTRTAYMELSSLRSEDTAVYYCGFRYGSGYGFDSWGQGTLVTVSS
VL: EIVLTQSPGTLSLSPGERATLSCRASQSVSSSYLAWYQKKPGQAPRLLIYGASTRATGIPDRFTGSGSGTDFTLSISRLEPEDFAVYYCQHFGTSVFTFGGGTKVEIK
B4: TCN-560 (5084_P10) (antibody, V domains shown)
VH: EVQLVESGGGLVQPGGSLRLSCAASGFIFRNYWMSWVRQAPGKGLEWVANIKQDGREKYYVDSLRGRVNISRDNAENSLYLHMNSLRVEDTAVYFCARARMVVVTGDGFDVWGHGTMVTVSS
VL: DIQMTQSPSSLSASVGDRVTITCRASQNIKRYFNWYQQKPGKAPKLLIYAASNLENGVPSRFSGSGSGTDFTLTISSLQPEDFATYYCQQSFSKSWTFGQGTNVDIK
B5: TCN-556 (5089_K12) (antibody, V domains shown)
VH: QVQLVQSGAEVKKPGASVKVSCKASGYTFIGYDMHWVRQAPGQGLEWMGWINAKRGGTNYAQKFQGRVTMTRDTSISTAYMELNSLRSDDTAVYYCARGVGSRTTIFGVLNPEFDYWGQGTLVTVSS
VL: QSALTQPPSASGSPGQSVTISCTGSSSDVGGYDYVSWYQQHPGKAPKLLIYEVTKRPSGVPDRFSGSKSGNTASLTVSGLQAEDEADYYCSSYAGNYNHVFGPGTKVTVL
B6: TCN-552 (5249_I23) (antibody, V domains shown)
VH: QVQVVQSGAEVKKPGSSVRVSCQASGGTFMNYAIIWVRRAPGQGLEWMGGIIPVFPTPNYAQMFQGRVTISTDESRSTSFLELTNLRYEDTAVYYCARRIYHGGNSGFDFWGQGTLVTVSS
VL: EIVLTQSPATLSLSPGERATLSCRASQSVGNYLAWYQQKPGQAPRLLIYDSSNRAPGIPARFSGSGSGTDFTLTISSLAPEDFAVYYCQQRSKWPPMYSFGHGTKLEIK
B7: TCN-557 (5081_A04) (antibody, V domains shown)
VH: QVQLVQSGAEVKKPGASVKVSCKASGHTFTGYYIHWVRQAPGQGLEWMGWINPDSGATSSAQNFQGRVTMTGDTSSSTAYMELSRLSFDDTAVYYCARVLFTSPFDFWGEGTLVTVSS
VL: QAVVTQEPSLAVSPGGTVTLTCGSSTGAVTRGHYPYWFQQKPGQAPRALIYDSAGNRHSWTPARFSGSLLGGKAALTLSGAQPEDEAEYYCLLSYSGVWVFGGGTKLTVL
B8: TCN-550 (5096_F06) (antibody, V domains shown)
VH: QVQLQESGPGLVKPSETLSLTCTVSGASINSHYWSWIRQPPGKGLEWIGYVYYSGSTTYNPSLKSRVTLSVDTSKNQFSLNLSSVTAADTAFYYCARHPYDVLTGSGDWFDPWGQGTLVTVSS
VL: SYVLTQAPSVSVAPGQTARITCGGNAIGSKKVHWYQHKAGQAPVLVVYDDTDRPSGIPERFSGSNSWSTATLTINRVEAGDEADYYCQVWDFTIDHVVFGGGTKLTVL
B9: TCN-549 (5092_P04) (antibody, V domains shown)
VH: QVQLVQSGAEVKKPGASVKVSCKASGYTFTGYYMHWVRQAPGQGLEWMGWINPNSGDTNYAQKFQGRVTMTRDTSITTAYMELSSLRSDDTAVYYCARDSPYSSSWSFFDYWGQGPLVTVSS
VL: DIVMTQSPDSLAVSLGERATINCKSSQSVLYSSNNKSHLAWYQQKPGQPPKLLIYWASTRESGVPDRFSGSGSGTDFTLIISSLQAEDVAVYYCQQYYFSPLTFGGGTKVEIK
B10: TCN-555 (5246_L16) (antibody, V domains shown)
VH: QVQLVQSGAEVKRPGSSVKVSCTASGGIFRKNAISWVRQAPGQGLEWMGGIIAVFNTANYAQKFQNRVKITADESGNTAYMELSSLTSDDTAVYYCASHPKYFYGSGSYPDFWGQGTLVTVSS
VL: QSALTQPRSVSGSPGQSITISCTGGSSDIGASNSVSWYQQHPGKAPKLVIFDVTERPSGVPHRFSGSKSGNTASLTVSGLQPDDEADYFCCAYGGKYLVVFGGGTKVTVL

The binders below were run against M2 protein of influenza A/Puerto Rico/8/34 (H1N1), on inactivated virus (Influenza A virus A/Puerto Rico/8/34 …, UniProt P06821 1-97) (assay: surface plasmon resonance, Fab fragment on influenza virus).
Chain of M2 protein of influenza A/Puerto Rico/8/34 (H1N1), on inactivated virus (P06821 whole entry, the tested form may be a part): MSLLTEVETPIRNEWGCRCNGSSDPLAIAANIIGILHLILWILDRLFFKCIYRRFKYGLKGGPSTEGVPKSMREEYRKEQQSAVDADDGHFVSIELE

Binder	Kd	koff	kon
B1	14 nM	0.014 s⁻¹	1e+06 M⁻¹ s⁻¹
B2	3.2 nM	0.0023 s⁻¹	740000 M⁻¹ s⁻¹

What follows are binders tested against Hemagglutinin of influenza A/Japan/305/57 (H2N2), on inactivated whole virions (Influenza A virus A/Japan/305/1957 …, UniProt P03451 16-562) (assay: ELISA, B cell culture supernatant on inactivated whole virions).

Binder	OD450
B3	2.54 OD450
B4	2.07 OD450
B5	2.41 OD450
B6	0.71 OD450
B7	2.7 OD450
B8	0.06 OD450
B9	0.08 OD450
B10	0.6 OD450
